Experimental data: article PMC4893915
Changes are numbered by the printed parent chain. Read-outs that look alike come from different tables or passages of the source.

Key:
Assay in all cases: EMSA
[1] = target: TEAD DBD, multimeric SEC fraction (F#50) (human, UniProt P28347 28-104)
[2] = target: T1, ΔL1 TEAD DBD (truncated L1 loop) (human, UniProt P28347 28-104, del52-63)
[3] = target: TEAD DBD, monomeric SEC fraction (F#61) (human, UniProt P28347 28-104)
TEAD DBD (before SEC) = TEAD DBD (before SEC) (human, UniProt P28347 28-104)
[4] = target: T1, ΔL1 TEAD DBD (truncated L1 loop); remark: listed apart in the source

B1: 1xGT (dsDNA)
DNA 1: TTCGATACACTTGTGGAATGTGTTTGATTTGTTAGCCCCG
DNA 2: CGGGGCTAACAAATCAAACACATTCCACAAGTGTATCGAA
binding result [1]: binds | Kd [2]: 7.9 ± 1.4 nM | binding result [3]: binds

B2: 2xGT (dsDNA)
DNA 1: B1 DNA 1 with T24G, T25G, G26A, T29G
DNA 2: B1 DNA 2 with A12C, C15T, A16C, A17C
binding result (TEAD DBD (before SEC)): binds | Kd [4]: 8.7 nM | binding result [1]: binds | binding result [3]: binds
